The source of these data is paper PMC4015189 (Cell, 2014).

Data set [1] deals with the molecule itself. Nature of the data set: SEC. (In general: Size exclusion chromatography separates by hydrodynamic size, large species first.)
Data set [2] has as its target microtubules. Nature of the data set: single-molecule TIRF microscopy.
Data set [3] concerns the molecule itself. The data set can be described thus: light scattering.

B1: NuMA-bonsai-tail II-GFP (other, human, UniProt Q14980 1-400, looked up)
chain: MTLHATRGAALLSWVNSLHVADPVEAVLQLQDCSIFIKIIDRIHGTEEGQQILKQPVSERLDFVCSFLQKNRKHPSSPECLVSAQKVLEGSELELAKMTMLLLYHSTMSSKSPRDWEQFEYKIQAELAVILKFVLDHEDGLNLNEDLENFLQKAPVPSTCSSTFPEELSPPSHQAKREIRFLELQKVASSSSGNNFLSGSPASPMGDILQTPQFQMRRLKKQLADERSNRDELELELAENRKLLTEKDAQIAMMQQRIDRLALLNEKQAASPLEPKELEELRDKNESLTMRLHETLKQCQDLKTEKSQMDRKINQLSEENGDLSFKLREFASHLQQLQDALNELTEEHSKATQEWLEKQAQLEKELSAALQDKKCLEEKNEILQGKLSQLEEHLSQLQDNSALLSLPGYRPTTRSSARRSQAGVSSGAPPGRNSFYMGTCQDEPEQLDDWNRIAELQQRNRVCPPHLKTCYPLESRPSLSLGTITDEEMKTGDPQETLRRASMQPIQIAEGTGITTRQQRKRVSLEPHQGPGTPESKKATSCFPRPMTPRDRHEGRKQSTTEAQKKAAPASTKQADRRQSMAFSILNTPKKLGNSLLRRGASKKALSKASPNTRSGTRRSPRIA
Broadly, the stoichiometry N is a count of units in the complex or per binding partner. Regarding B1, the “stoichiometry N” value in data set [1] amounted to 2. Besides, in data set [2], the binding lifetime stood at 3.6 ± 0.2 s.

B2: NuMA-tail II-GFP (domain or fragment, human, UniProt Q14980 1868-2091, looked up)
chain: SALLSLPGYRPTTRSSARRSQAGVSSGAPPGRNSFYMGTCQDEPEQLDDWNRIAELQQRNRVCPPHLKTCYPLESRPSLSLGTITDEEMKTGDPQETLRRASMQPIQIAEGTGITTRQQRKRVSLEPHQGPGTPESKKATSCFPRPMTPRDRHEGRKQSTTEAQKKAAPASTKQADRRQSMAFSILNTPKKLGNSLLRRGASKKALSKASPNTRSGTRRSPRIA
In data set [2], B2 yielded a binding lifetime of 2.8 ± 0.2 s.

B3: NuMA NTD (domain or fragment, human, UniProt Q14980 1-400, looked up)
chain: MTLHATRGAALLSWVNSLHVADPVEAVLQLQDCSIFIKIIDRIHGTEEGQQILKQPVSERLDFVCSFLQKNRKHPSSPECLVSAQKVLEGSELELAKMTMLLLYHSTMSSKSPRDWEQFEYKIQAELAVILKFVLDHEDGLNLNEDLENFLQKAPVPSTCSSTFPEELSPPSHQAKREIRFLELQKVASSSSGNNFLSGSPASPMGDILQTPQFQMRRLKKQLADERSNRDELELELAENRKLLTEKDAQIAMMQQRIDRLALLNEKQAASPLEPKELEELRDKNESLTMRLHETLKQCQDLKTEKSQMDRKINQLSEENGDLSFKLREFASHLQQLQDALNELTEEHSKATQEWLEKQAQLEKELSAALQDKKCLEEKNEILQGKLSQLEEHLSQLQDN
B3: the “stoichiometry N” value in data set [3] came to 2.

B4: EB1-GFP (natural protein, human, UniProt Q15691 1-268, looked up)
chain: MAVNVYSTSVTSDNLSRHDMLAWINESLQLNLTKIEQLCSGAAYCQFMDMLFPGSIALKKVKFQAKLEHEYIQNFKILQAGFKRMGVDKIIPVDKLVKGKFQDNFEFVQWFKKFFDANYDGKDYDPVAARQGQETAVAPSLVAPALNKPKKPLTSSSAAPQRPISTQRTAAAPKAGPGVVRKNPGVGNGDDEAAELMQQVNVLKLTVEDLEKERDFYFGKLRNIELICQENEGENDPVLQRIVDILYATDEGFVIPDEGGPQEEQEEY
For B4, the binding lifetime in data set [2] was 1.2 ± 0.2 s.
